Measured values reported in US10648014B2, “Degradation resistant peptide based biosensors” (Purdue Research Foundation, priority 2014, dated 2020).
Square brackets hold non-standard residues; d marks the D form. Ends that are not written are not given here. * marks the point of attachment. Biotin = O=C1N[C@H]2[C@H](CS[C@H]2CCCCC(=O)*)N1; photo‑cleavable linker = not defined here

Columns and labels:
[1] = test system: K562 chronic myelogenous leukemia (CML) cells; format: in vitro ADME, Human
Method: Biosensor Enrichment: K562 cells were incubated in lysis buffer for 20 minutes. Samples were spun down in 2500×g for 5 minutes at 4° C. Lysate was transferred to new Eppendorf tubes and treated with UV light (CL-1000 Ultraviolet Crosslinker (UVP, Upland, Calif., USA)) for 20 minutes to cleave the photo-cleavable linker. Photocleaved lysate samples were incubated with streptavidin coated agarose beads (Pierce) in 96 well polypropylene filter plate (PALL, Ann Arbor, Mich.) for 20 minutes at room temperature. Following incubation, the plate was spun down at 250×g for 30 seconds over a 96 well collection plate. The wells were washed 4 times with 200 uL of PBS and 2 times with MilliQ water, and spun down for 30 seconds at 250×g after each addition. Beads were resuspended in 15 μL of (75%/25%/0.1%:acetonitrile/water/TFA) elution buffer and shaken for 15 minutes at 600 rpm. Biosensor samples were spotted at 0.5 μL on a MALDI plate with 0.5 μL of matrix (10 mg/mL α-cyano-4-cinnamic acid and 10 mg/mL ammonium hydrogen phosphate, dissolved in 75%/25%/0.1% acetonitrile/water/TFA). Mass analysis was performed using an Applied Biosystems Voyager 4800 MALDI-TOF/TOF using linear positive mode.
Human K562 chronic myelogenous leukemia (CML) cells were exposed to either the control biosensor SEQ ID NO: 52 or the biosensor SEQ ID NO: 47 for 5 minutes as shown in FIGS. 8-13. […]

[2] = biological target: Lyn kinase (Homo sapiens, UniProt P07948); assay: In vitro kinase assay against Lyn kinase; format: biochemical; conditions: FIG. 2
Chain of Lyn kinase (P07948 whole entry): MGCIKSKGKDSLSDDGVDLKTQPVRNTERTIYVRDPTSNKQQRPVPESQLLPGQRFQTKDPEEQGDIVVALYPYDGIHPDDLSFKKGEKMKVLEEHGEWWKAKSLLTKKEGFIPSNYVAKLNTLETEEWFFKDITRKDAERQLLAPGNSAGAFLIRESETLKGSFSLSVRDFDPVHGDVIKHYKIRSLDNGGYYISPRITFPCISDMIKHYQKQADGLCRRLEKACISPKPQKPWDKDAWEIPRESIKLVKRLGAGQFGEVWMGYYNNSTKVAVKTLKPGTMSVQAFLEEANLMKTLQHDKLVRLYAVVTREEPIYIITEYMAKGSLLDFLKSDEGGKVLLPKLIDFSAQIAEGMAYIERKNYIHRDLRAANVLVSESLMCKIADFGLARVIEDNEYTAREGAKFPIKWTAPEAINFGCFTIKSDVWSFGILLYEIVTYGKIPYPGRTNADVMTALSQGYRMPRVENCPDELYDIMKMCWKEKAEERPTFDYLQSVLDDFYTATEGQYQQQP
Method: (§1) In Vitro Abl Kinase Assay: The in vitro kinase assays were performed in triplicate in Dulbecco's Phosphate Buffered Saline without Calcium, Magnesium, or Phenol red in water bath maintained at 37° C. The total volume of the assay was 200 uL, and contained 1 mM ATP, 10 mM MgCl2, 5-25 uM of the biosensor, and 6 nM of Arg or Lyn Kinase final concentrations. Initiation of the assay was the addition of 1 uL of Arg Kinase to the reaction mix and heated at 37° C. Aliquots of 20 uL were collected at intervals described over a total run time of up to 60 minutes.
(§2) In order to assess the selectivity of the biosensor SEQ ID NO: 47, we tested against Lyn and Fyn kinases using the in vitro kinase assay.

[3] = biological target: Fyn kinase (Homo sapiens, UniProt P06241); assay: In vitro kinase assay against Fyn kinase; format: biochemical; conditions: FIG. 2
Chain of Fyn kinase (P06241 whole entry): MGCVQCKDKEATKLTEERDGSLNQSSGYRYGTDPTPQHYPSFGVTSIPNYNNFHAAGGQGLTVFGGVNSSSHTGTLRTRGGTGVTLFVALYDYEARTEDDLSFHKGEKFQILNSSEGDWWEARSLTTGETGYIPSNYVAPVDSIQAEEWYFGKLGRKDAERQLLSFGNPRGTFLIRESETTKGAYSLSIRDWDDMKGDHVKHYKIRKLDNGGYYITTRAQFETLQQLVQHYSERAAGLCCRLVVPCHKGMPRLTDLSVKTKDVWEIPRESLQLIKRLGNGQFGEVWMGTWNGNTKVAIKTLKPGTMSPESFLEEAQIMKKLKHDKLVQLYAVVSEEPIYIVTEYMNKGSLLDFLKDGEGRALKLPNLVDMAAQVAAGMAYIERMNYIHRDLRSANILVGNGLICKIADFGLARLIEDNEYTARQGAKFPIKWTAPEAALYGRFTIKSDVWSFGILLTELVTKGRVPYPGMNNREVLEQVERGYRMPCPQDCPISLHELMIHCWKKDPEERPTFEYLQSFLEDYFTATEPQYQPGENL
Method: as §1, §2

[4] = test system: Abl kinase; assay: In vitro Abl kinase assay, phosphorylation detected by mass spectrometry; format: biochemical; conditions: for phosphorylation by Abl kinase: in vitro kinase assay, mass spectrometry, FIG. 2; for selectivity toward the Abl family of kinases: in vitro kinase assays Abl vs Lyn and Fyn
Method: as §1
Referring now to FIG. 2, to evaluate the importance of the SH3 targeting sequence, we performed in vitro kinase assays comparing the peptides using the Abl kinase. Phosphorylation was detected using mass spectrometry.

[5] = biological target: T1, Bcr-Abl kinase (Homo sapiens, UniProt P00519); assay: K562 cell kinase assay, intracellular phosphorylation of biosensor; format: cell-based; conditions: K562 cells, 60 minutes incubation, FIG. 6
T1 construct: endogenous in cells; host or cells: K562; the other entry of the earlier key: BCR (P11274, Breakpoint cluster region protein)
T1 sequence (P00519 with tags, fused parts or gaps): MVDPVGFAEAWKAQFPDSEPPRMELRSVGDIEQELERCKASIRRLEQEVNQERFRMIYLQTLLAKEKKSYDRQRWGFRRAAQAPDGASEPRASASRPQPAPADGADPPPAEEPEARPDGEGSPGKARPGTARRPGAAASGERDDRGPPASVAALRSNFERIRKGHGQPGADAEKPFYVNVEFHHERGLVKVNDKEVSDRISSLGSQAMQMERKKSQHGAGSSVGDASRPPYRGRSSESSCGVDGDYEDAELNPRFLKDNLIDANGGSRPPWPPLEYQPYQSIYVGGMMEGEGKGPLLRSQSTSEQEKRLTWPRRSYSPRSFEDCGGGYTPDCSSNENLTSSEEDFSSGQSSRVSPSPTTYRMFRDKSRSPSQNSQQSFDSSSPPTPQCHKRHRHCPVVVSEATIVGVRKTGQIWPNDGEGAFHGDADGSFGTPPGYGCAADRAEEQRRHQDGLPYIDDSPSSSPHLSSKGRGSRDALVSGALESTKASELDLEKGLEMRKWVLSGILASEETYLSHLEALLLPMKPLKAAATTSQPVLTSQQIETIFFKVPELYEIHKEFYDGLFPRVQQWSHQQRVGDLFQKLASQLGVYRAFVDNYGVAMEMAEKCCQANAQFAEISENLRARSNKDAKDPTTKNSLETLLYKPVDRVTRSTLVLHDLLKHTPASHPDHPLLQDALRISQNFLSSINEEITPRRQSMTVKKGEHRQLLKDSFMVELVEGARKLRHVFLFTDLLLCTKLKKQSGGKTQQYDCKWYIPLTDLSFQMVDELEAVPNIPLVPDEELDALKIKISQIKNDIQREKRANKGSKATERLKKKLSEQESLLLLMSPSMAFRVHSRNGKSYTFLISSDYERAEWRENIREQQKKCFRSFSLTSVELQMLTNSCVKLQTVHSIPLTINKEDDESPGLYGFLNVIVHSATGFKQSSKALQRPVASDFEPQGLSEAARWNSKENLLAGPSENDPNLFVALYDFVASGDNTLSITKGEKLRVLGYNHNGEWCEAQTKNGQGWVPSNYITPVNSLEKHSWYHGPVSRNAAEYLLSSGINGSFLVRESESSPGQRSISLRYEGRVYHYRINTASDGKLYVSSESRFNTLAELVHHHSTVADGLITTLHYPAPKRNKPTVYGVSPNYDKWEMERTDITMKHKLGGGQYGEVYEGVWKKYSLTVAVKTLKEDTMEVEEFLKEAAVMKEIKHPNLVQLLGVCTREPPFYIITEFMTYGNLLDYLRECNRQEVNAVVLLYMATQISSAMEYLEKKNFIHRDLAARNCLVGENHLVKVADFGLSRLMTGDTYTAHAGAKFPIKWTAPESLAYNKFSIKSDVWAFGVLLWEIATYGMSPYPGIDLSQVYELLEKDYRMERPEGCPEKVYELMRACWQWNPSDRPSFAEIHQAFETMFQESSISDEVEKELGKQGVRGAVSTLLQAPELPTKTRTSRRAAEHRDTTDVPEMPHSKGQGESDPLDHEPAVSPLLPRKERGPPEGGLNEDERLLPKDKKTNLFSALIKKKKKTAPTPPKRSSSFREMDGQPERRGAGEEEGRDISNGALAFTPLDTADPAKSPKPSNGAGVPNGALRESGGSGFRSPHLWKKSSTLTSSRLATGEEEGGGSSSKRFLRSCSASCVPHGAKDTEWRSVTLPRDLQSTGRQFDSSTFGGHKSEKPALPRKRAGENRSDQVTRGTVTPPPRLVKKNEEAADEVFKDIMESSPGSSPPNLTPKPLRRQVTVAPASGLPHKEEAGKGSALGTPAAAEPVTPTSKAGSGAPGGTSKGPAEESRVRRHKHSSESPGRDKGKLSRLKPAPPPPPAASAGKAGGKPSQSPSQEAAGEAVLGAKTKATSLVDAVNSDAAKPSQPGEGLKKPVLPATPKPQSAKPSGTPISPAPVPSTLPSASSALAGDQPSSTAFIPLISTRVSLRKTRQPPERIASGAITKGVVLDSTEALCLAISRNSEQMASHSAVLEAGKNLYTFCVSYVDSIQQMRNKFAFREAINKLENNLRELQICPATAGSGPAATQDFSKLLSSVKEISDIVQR

[6] = test system: K562 cells; format: cell-based, Human
Method: Flow Cytometry: K562 cells (about 1×10^6 cells/mL) were incubated for 30 minutes with FITC labeled biosensors at various concentrations, 1-50 μM. Cells were centrifuged at about 2500 rpm for about 5 minutes at 4° C. Media was aspirated and cells were washed 3 times with fresh media. A FC500 flow cytometer (Beckman Coulter) was used to analyze 50 μL aliquots of suspended cells.
Flow cytometry was used to verify the uptake of the biosensor SEQ ID NO:47 by K562 cells. We conjugated a FITC fluorophore to the cysteine residue of the biosensor by maleimide reaction.

[7] = biosensor incubated with Abl kinase, Michaelis Menten, FIG. 3

## EAIYAAFAKKG-Kbiotin-photo-cleavable linker-GCGAPTYSPPPPPGGRKKRRQRRR (EAIYAAFAKKGK(Biotin)[photo‑cleavable linker]GCGAPTYSPPPPPGGRKKRRQRRR; reading uncertain) [SEQ ID NO: 52, reference compound]
[1]
  degradation after exposure to K562 cells: almost completely degraded

## KbiotinkkafpaayiaeG-photo-cleavable linker-GCGAPTYSPPPPPGGrrrqrrkkr (K(Biotin)[dK][dK][dA][dF][dP][dA][dA][dY][dI][dA][dE]G[photo‑cleavable linker]GCGAPTYSPPPPPGG[dR][dR][dR][dQ][dR][dR][dK][dK][dR]; reading uncertain) [SEQ ID NO:47]
[2]
  phosphorylation by Lyn kinase: did not phosphorylate
[1]
  degradation after exposure to K562 cells: essentially intact
[3]
  selectivity for Abl over Lyn or Fyn kinases: selective for Abl over Lyn or Fyn kinases
[4]; [7]
  Km: 7.5 µM
  Vmax: 849.5 pmol/mg/min
[4]
  phosphorylation by Abl kinase: phosphorylated with reasonable efficiency
  selectivity toward the Abl family of kinases: relatively selective toward the Abl family of kinases
[5]
  intracellular phosphorylation of the biosensor: observed
[6]
  uptake by K562 cells: confirmed the uptake

## KbiotinkkafpaayiaeG-photo-cleavable linker-GCGGrrrqrrkkr (K(Biotin)[dK][dK][dA][dF][dP][dA][dA][dY][dI][dA][dE]G[photo‑cleavable linker]GCGG[dR][dR][dR][dQ][dR][dR][dK][dK][dR]; reading uncertain) [SEQ ID NO: 53]
[4]
  phosphorylation by Abl kinase: not appreciably phosphorylated
  selectivity toward the Abl family of kinases: relatively selective toward the Abl family of kinases
